# Assay results published in patent US9359622B2, “Method for biotechnological production of dihydrochalcones” (Symrise AG, priority 2012, dated 2016).
# Columns and labels:
# [1] = substrate: O=C(/C=C/c1ccc(O)cc1)c1c(O)cc(O)cc1O; experiment: Characterisation of the enzyme activity of the CHI following expression of the vector pET28b_CHI in E. coli; format: biochemical, Eubacterium ramulus DSM 16296; conditions: other: CHI expressed from pET28b_CHI in E. coli; substrate not given
# Text: Following expression of for example pET28b_CHI in E. coli (see above) CHI can be established both in the soluble and in the insoluble fractions.
# Following purification with for example anion exchange chromatography, hydrophobic interaction chromatography, size exclusion chromatography and/or Resource Q purification the CHI can be isolated for characterization (FIG. 5 provides examples of the results of the individual purification steps following expression of the vector pET28b_CHI in E. coli).
# The values in the table in Table 6 show (further) results of the chalcone isomerase activity of the expressed CHI, obtained by photometric determination (at 368 nm) in relation to the degradation of naringenin chalcone (to form […]).
# (§1) A photometric determination allowed—for further investigation of the CHI activity—the reduction over time in the concentration of naringenin chalcone in a cell-free protein crude extract to be observed.
# [2] = Activity measurements for determination of the temperature optimum for CHI; format: biochemical
# Text: (§2) For the purposes of the present invention especially preferred is the use of a chalcone isomerase, having one, several or all the following characteristics and/or a temperature and pH stability according to Tables 1-3:
# as §1
# [3] = Temperature stability of CHI; format: biochemical
# Text: as §2, §1
# [4] = Activity measurements for determination of the pH optimum of CHI; format: biochemical
# Text: as §2, §1
molecule,measurement,setting,value
"Eubacterium ramulus DSM 16296 chalcone isomerase (CHI), wild type, SEQ ID NO:3 (Eubacterium ramulus) (protein) MADFKFEPMRSLIYVDCVSEDYRPKLQRWIYKVHIPDSISQFEPYVTKYAFYPSFPIPPQGDRFGYARMQLTEHHWLVSDLDPRLEIKAIAETFPMDVLVWQGQIPAAAHTDAQIDSDGDAGNAARKSNNAEGNPFIFAFLPMWWEKDLKGKGRTIEDGANYRFNMTIGFPEGVDKAEGEKWLFEKVVPILQAAPECTRVLASAVKKDINGCVMDWVLEIWFENQSGWYKVMVDDMKALEKPSWAQQDAFPFLKPYHNVCSAAVADYTPSNNLANYRGYITMR",Km,[1],36.83 µM
same,Vmax,[1],107 µmol/min/mg
same,kcat,[1],417 s⁻¹
same,kcat/Km,[1],1.13e+07 M⁻¹ s⁻¹
same,Spec. activity,[2]; 30° C.,373.47 U/mg
same,Spec. activity,[2]; 37° C.,795.04 U/mg
same,Spec. activity,[2]; 40° C.,887.73 U/mg
same,Spec. activity,[2]; 45° C.,1133.38 U/mg
same,Spec. activity,[2]; 50° C.,748.66 U/mg
same,Spec. activity,[2]; RT (23° C.),158.39 U/mg
same,Spec. activity,"[3]; 25° C., 0 h",188.56 U/mg
same,Spec. activity,"[3]; 25° C., 0.5 h",136.70 U/mg
same,Spec. activity,"[3]; 25° C., 1 h",141.10 U/mg
same,Spec. activity,"[3]; 25° C., 2 h",152.08 U/mg
same,Spec. activity,"[3]; 25° C., 4 h",152.48 U/mg
same,Spec. activity,"[3]; 25° C., 6 h",146.46 U/mg
same,Spec. activity,"[3]; 25° C., 24 h",116.37 U/mg
same,Spec. activity,"[3]; 30° C., 0 h",188.56 U/mg
same,Spec. activity,"[3]; 30° C., 0.5 h",169.66 U/mg
same,Spec. activity,"[3]; 30° C., 1 h",158.01 U/mg
same,Spec. activity,"[3]; 30° C., 2 h",154.62 U/mg
same,Spec. activity,"[3]; 30° C., 4 h",145.77 U/mg
same,Spec. activity,"[3]; 30° C., 6 h",147.18 U/mg
same,Spec. activity,"[3]; 30° C., 24 h",119.96 U/mg
same,Spec. activity,"[3]; 37° C., 0 h",188.56 U/mg
same,Spec. activity,"[3]; 37° C., 0.5 h",155.20 U/mg
same,Spec. activity,"[3]; 37° C., 1 h",164.39 U/mg
same,Spec. activity,"[3]; 37° C., 2 h",156.17 U/mg
same,Spec. activity,"[3]; 37° C., 4 h",156.84 U/mg
same,Spec. activity,"[3]; 37° C., 6 h",156.21 U/mg
same,Spec. activity,"[3]; 37° C., 24 h",93.93 U/mg
same,Spec. activity,"[3]; 41° C., 0 h",188.56 U/mg
same,Spec. activity,"[3]; 41° C., 0.5 h",151.96 U/mg
same,Spec. activity,"[3]; 41° C., 1 h",154.22 U/mg
same,Spec. activity,"[3]; 41° C., 2 h",149.12 U/mg
same,Spec. activity,"[3]; 41° C., 4 h",146.59 U/mg
same,Spec. activity,"[3]; 41° C., 6 h",149.39 U/mg
same,Spec. activity,"[3]; 41° C., 24 h",93.30 U/mg
same,Spec. activity,"[3]; 44° C., 0 h",188.56 U/mg
same,Spec. activity,"[3]; 44° C., 0.5 h",158.12 U/mg
same,Spec. activity,"[3]; 44° C., 1 h",150.15 U/mg
same,Spec. activity,"[3]; 44° C., 2 h",129.07 U/mg
same,Spec. activity,"[3]; 44° C., 4 h",115.07 U/mg
same,Spec. activity,"[3]; 44° C., 6 h",83.35 U/mg
same,Spec. activity,"[3]; 50° C., 0 h",188.56 U/mg
same,Spec. activity,"[3]; 50° C., 0.5 h",50.49 U/mg
same,Spec. activity,"[3]; 50° C., 1 h",3.05 U/mg
same,Spec. activity,"[3]; 50° C., 2 h",2.35 U/mg
same,Spec. activity,"[3]; RT (23° C.), 0 h",188.56 U/mg
same,Spec. activity,"[3]; RT (23° C.), 0.5 h",145.67 U/mg
same,Spec. activity,"[3]; RT (23° C.), 1 h",148.67 U/mg
same,Spec. activity,"[3]; RT (23° C.), 2 h",144.05 U/mg
same,Spec. activity,"[3]; RT (23° C.), 4 h",146.39 U/mg
same,Spec. activity,"[3]; RT (23° C.), 6 h",141.06 U/mg
same,Spec. activity,"[3]; RT (23° C.), 24 h",125.68 U/mg
same,Spec. activity,[4]; pH value 6.13,82.07 U/mg
same,Spec. activity,[4]; pH value 6.35,163.43 U/mg
same,Spec. activity,[4]; pH value 6.4,177.59 U/mg
same,Spec. activity,[4]; pH value 6.55,169.79 U/mg
same,Spec. activity,[4]; pH value 6.8,185.86 U/mg
same,Spec. activity,[4]; pH value 6.93,175.37 U/mg
same,Spec. activity,[4]; pH value 7.12,174.86 U/mg
same,Spec. activity,[4]; pH value 7.45,173.01 U/mg
same,Spec. activity,[4]; pH value 7.7,168.79 U/mg
same,Spec. activity,[4]; pH value 8,152.55 U/mg
